Assay [1] concerns the target T1, Human active C1s (Complement Technology) (human, UniProt P09871 16-688).
T1 sequence: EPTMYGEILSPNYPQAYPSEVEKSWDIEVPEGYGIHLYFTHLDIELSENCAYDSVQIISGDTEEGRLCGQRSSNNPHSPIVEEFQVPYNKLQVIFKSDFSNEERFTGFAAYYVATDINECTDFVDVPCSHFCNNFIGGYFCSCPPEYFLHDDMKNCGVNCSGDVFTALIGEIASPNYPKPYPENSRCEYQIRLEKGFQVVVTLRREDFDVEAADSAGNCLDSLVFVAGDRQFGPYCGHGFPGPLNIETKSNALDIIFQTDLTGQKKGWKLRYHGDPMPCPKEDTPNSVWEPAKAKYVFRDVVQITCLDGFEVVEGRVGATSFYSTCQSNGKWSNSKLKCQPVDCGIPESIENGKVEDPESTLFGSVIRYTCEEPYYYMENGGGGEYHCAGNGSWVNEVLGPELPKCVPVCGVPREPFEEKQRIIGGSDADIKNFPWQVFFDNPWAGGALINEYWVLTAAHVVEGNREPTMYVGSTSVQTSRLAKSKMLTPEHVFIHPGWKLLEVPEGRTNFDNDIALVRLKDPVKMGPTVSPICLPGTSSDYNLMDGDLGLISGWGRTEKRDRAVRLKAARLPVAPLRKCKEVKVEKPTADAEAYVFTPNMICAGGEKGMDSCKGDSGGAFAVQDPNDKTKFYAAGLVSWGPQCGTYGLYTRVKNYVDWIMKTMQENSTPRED
Kind of assay: cell-based or functional assay.

Assay [2] concerns the target T1, Human active C1s (Complement Technology). Put plainly: cell-based or functional assay. The source holds these as a separate data set.
For assay [3], the target named is T2, His-tagged recombinant human TfR (produced in-house) (human, UniProt P02786 89-760).
T2 construct: also called hTfR; transferrin receptor 1
T2 sequence (P02786 89-760 limits assumed): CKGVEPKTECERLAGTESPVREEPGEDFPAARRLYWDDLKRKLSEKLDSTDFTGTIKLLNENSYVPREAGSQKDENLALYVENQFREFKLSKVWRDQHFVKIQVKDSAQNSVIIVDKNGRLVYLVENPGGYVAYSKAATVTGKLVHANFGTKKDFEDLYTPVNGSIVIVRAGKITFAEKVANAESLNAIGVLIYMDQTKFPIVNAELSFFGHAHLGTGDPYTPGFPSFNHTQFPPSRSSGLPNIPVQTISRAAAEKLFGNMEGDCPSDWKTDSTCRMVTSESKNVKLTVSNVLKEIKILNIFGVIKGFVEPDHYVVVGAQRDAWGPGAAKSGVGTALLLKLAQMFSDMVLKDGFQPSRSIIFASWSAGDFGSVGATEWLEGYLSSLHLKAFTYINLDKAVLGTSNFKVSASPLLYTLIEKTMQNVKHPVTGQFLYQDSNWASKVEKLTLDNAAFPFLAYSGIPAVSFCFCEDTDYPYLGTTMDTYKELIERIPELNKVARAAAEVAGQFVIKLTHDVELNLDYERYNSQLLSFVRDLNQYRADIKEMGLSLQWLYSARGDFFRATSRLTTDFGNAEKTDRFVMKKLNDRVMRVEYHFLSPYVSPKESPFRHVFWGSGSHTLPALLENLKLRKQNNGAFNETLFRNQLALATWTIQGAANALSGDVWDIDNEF
Kind of assay: affinity of bispecific purified from CHO cells (SPR; details not restated).

Assay [4] concerns the target T1, Human active C1s (Complement Technology). The description is as above.
The target of a further assay is T3, cynomolgus TfR (cynomolgus, UniProt H9EXL1 89-760 (rhesus entry)).
T3 construct: also called Cyno TfR; cTfR
T3 sequence (chain, as listed by the source): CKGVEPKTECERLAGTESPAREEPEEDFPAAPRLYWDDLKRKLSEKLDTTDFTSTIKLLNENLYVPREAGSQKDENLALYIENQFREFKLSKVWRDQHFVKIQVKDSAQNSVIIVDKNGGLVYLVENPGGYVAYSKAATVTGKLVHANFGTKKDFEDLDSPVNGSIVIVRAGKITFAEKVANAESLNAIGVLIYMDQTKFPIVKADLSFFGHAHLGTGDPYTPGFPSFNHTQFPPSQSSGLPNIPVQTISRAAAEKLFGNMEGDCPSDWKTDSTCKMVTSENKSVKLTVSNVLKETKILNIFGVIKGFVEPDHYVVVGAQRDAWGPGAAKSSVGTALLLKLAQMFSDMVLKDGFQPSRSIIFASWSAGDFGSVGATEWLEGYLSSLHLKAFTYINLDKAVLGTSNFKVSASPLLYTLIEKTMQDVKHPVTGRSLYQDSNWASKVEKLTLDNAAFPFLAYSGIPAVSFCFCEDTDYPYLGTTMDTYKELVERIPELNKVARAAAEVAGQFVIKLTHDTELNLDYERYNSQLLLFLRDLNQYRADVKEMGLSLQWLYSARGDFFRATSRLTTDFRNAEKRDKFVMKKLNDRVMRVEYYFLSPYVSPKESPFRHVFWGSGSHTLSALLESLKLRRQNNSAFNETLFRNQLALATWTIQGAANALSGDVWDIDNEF
Described as above.

A further assay addresses T4, cynomolgus aC1s (cynomolgus, UniProt A0A2K5VQX9 16-685).
T4 construct: also called Cyno aC1s; caC1s
T4 sequence: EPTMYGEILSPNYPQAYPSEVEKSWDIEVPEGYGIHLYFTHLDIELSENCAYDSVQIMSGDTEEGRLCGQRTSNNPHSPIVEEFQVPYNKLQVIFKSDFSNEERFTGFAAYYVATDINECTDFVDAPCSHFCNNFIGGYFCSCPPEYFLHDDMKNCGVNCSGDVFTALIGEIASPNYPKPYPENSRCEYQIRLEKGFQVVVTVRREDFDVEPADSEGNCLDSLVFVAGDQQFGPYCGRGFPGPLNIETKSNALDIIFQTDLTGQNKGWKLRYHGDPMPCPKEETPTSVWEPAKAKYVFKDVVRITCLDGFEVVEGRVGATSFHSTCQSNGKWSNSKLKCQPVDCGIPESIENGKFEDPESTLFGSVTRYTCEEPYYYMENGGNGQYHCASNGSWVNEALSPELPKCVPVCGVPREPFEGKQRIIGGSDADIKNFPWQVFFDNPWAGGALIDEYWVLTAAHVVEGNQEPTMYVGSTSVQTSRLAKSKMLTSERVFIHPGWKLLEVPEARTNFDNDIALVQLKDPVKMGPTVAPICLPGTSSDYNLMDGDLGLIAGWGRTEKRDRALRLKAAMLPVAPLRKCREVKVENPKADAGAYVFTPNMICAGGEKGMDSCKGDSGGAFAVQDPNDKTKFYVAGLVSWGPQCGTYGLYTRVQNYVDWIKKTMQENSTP
Described as above.

As a reminder, the Kd is the constant that tells how readily two partners part at equilibrium.

B1: bispecific anti-aC1s (L4)/anti-TfR (531v25.v6) IgG4 antibody (bispecific antibody)
heavy 1: QVQLVQSGAEVKKPGASVKLSCTASGFNIKDDYIHWVKEAPGQGLEWIGRIDPADGHTKYAPKFQVKVTITADTSTSTAYLELSSLRSEDTAVYYCARYGYGREVFDYWGQGTTVTVSSASTKGPSVFPLAPCSRSTSESTAALGCLVKDYFPEPVTVSWNSGALTSGVHTFPAVLQSSGLYSLSSVVEVPSSSLGTKTYTCNVDHKPSNTKVDERVESDYGPPCPPCPAPEFEGGPSVFLFPPKPKDTLMISRTPEVTCVVVDVSQEDPEVQFNWYVDGVEVHNAKTKPREEQFNSTYRVVSVLTVLHQDWLNGKEYKCKVSNKGLPSSIEKTISKAKGQPREPQVCTLPPSQEEMTKNQVSLSCAVKGFYPSDIAVEWESNGQPENNYKTTPPVLDSDGSFFLVSRLTVDKSRWQEGNVFSCSVLHEALHSRFTQKSLSLSLG
light 1: DIVMTQSPDSLAVSLGERATISCKSSQSVDYEGDSYLNWYQKKPGQPPKLLIYDASNLESGVPDRFSGSGSGTDFTLTISSLQAEDVAVYYCQQSNEDPWTFGQGTKVEIKRTVAAPAVFIFPPSKKQLKSGTASVVCLLKNFYPREAKVQWKVDNALQSGNSQESVTEQDSKDSTYSLSSTLTLSKADYEKHKVYACEVTHQGLSSPVTKSFNRGEC
heavy 2: QVQLVQSGAEVKKPGASVKVSCKASGYTFTRYYLNWVRKAPGQGLEWIGMIDPSVSETHYAQKFQGRATLTVDKSTSTAYMELSSLRSEDTAVYYCSQIRLPYYYAMDSWGQGTTVTVSSASTKGPSVFPLAPCSRSTSESTAALGCLVKDYFPEPVTVSWNSGALTSGVHTFPAVLQSSGLYSLSSVVTVPSSSLGTKTYTCNVDHKPSNTKVDKRVESKYGPPCPPCPAPEFEGGPSVFLFPPKPKDTLMISRTPEVTCVVVDVSQEDPEVQFNWYVDGVEVHNAKTKPREEQFNSTYRVVSVLTVLHQDWLNGKEYKCKVSNKGLPSSIEKTISKAKGQPREPQVYTLPPCQEEMTKNQVSLWCLVKGFYPSDIAVEWESNGQPENNYKTTPPVLDSDGSFFLYSRLTVDKSRWQEGNVFSCSVLHEALHSHYTQKSLSLSLG
light 2: DIQMTQSPSSLSASVGDRVTITCRASQDIESFLNWYQEKPGKAPKLLIYYTSRLQSGVPSRFSGSGSGTDYTLTISSLQPEDFATYYCQQGNTLPRTFGGGTKVEIKRTVAAPSVFIFPPSDEQLKSGTASVVCLLNNFYPREAKVQWKVDNALQSGNSQESVTEQDSKDSTYSLSSTLTLSKADYEKHKVYACEVTHQGLSSPVTKSFNRGEC
notes: Purified from CHO cells; monovalent for aC1s
Consider B1, for which the “IC50, C3d deposition on neurons in iPSC tri-cultures with 3% serum” value in assay [1] came to 23.5 µg/mL. Moreover, in assay [2], the “IC50, Wieslab Complement Pathway Assay” value was 1.08 µg/mL. Besides, the “IC90, Wieslab Complement Pathway Assay” value in assay [2] was determined as 7.6 µg/mL. The dissociation constant (Kd) in assay [3] amounted to 28.6 nM; in assay [4], 3.31 nM; with cynomolgus TfR, 43.7 nM; with cynomolgus aC1s, 0.248 nM.

(Values after US20250376511A1 (Sanofi, published 2025).)
